Results reported in publication PMC8533642 (Journal of medicinal chemistry, 2021).
Square brackets hold non-standard residues; d marks the D form. dPhe(4-I) = N[C@H](Cc1ccc(I)cc1)C(=O)O; 2Nal = N[C@@H](Cc1ccc2ccccc2c1)C(=O)O; d2Nal = N[C@H](Cc1ccc2ccccc2c1)C(=O)O

Legend:
[1] = biological target: mouse melanocortin-4 receptor (mouse) (UniProt P56450)
[2] = biological target: mouse melanocortin-3 receptor (mouse) (UniProt P33033)
[3] = biological target: mouse melanocortin-5 receptor (mouse) (UniProt P41149)
Sequence of mouse melanocortin-5 receptor (mouse) (P41149 whole entry): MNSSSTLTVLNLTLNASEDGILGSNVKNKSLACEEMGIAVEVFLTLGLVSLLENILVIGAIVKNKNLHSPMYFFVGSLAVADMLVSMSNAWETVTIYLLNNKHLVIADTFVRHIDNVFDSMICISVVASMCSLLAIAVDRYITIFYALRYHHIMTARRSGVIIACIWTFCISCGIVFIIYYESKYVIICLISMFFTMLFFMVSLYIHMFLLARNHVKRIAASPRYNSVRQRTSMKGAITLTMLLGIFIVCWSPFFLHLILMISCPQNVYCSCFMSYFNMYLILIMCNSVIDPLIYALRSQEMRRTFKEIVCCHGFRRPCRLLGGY

[4] = biological target: mouse melanocortin-4 receptor (mouse) (UniProt P56450); remark: listed apart in the source
[5] = biological target: mouse melanocortin-3 receptor (mouse) (UniProt P33033); remark: listed apart in the source
[6] = biological target: mouse melanocortin-1 receptor (mouse) (UniProt Q01727)
Sequence of mouse melanocortin-1 receptor (mouse) (Q01727 whole entry): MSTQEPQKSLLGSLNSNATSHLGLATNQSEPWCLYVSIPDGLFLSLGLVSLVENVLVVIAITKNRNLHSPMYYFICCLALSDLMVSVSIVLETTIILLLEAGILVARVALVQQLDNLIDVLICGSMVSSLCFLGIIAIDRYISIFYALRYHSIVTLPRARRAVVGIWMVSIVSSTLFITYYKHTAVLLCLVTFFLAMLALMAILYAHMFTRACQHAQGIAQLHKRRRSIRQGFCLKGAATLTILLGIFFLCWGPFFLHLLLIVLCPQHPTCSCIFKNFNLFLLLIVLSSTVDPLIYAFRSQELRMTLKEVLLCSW

Sequence of mouse melanocortin-4 receptor (mouse) (P56450 whole entry): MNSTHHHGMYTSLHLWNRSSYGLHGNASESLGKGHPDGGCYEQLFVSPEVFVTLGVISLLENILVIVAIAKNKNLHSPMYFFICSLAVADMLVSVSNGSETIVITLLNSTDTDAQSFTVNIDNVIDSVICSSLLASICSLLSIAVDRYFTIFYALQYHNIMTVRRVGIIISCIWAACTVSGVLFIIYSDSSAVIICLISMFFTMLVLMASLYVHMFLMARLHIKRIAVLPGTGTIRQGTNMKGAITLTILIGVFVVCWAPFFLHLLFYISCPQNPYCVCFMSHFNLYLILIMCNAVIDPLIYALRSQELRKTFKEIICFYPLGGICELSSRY
Sequence of mouse melanocortin-3 receptor (mouse) (P33033 whole entry): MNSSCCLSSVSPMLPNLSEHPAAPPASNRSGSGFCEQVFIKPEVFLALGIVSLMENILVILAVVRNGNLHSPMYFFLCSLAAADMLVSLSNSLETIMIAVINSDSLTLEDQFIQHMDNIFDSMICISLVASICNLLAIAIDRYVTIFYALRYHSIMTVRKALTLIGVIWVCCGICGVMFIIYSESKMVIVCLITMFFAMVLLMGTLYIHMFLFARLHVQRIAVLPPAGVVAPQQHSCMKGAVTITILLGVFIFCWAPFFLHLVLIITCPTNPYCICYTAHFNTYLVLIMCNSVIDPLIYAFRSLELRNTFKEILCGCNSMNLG

Row | Substance | antagonist Ki = 10^-(pA2), NDP-MSH at mMC4R, cAMP AlphaScreen [1] [nM] | pA2, antagonism of NDP-MSH at mMC4R, Schild analysis, cAMP AlphaScreen [1] | antagonist Ki = 10^-(pA2), NDP-MSH at mMC3R, cAMP AlphaScreen [2] [nM] | pA2, antagonism of NDP-MSH at mMC3R, Schild analysis, cAMP AlphaScreen [2] | agonist EC50, cAMP AlphaScreen [3] [µM] | % of maximal NDP-MSH response at 100 μM, cAMP AlphaScreen [4] [%] | agonist EC50, cAMP AlphaScreen [5] [µM] | % of maximal NDP-MSH response at 100 μM, cAMP AlphaScreen [6] [%] | agonist EC50, cAMP AlphaScreen [4] [µM] | agonist EC50, cAMP AlphaScreen [6] [µM] | % of maximal NDP-MSH response at 100 μM, cAMP AlphaScreen [3] [%] | % of maximal NDP-MSH response at 100 μM, cAMP AlphaScreen [5] [%] | % receptor activation relative to NDP-MSH (partial agonist), cAMP AlphaScreen [6] [%] | apparent EC50 (partial agonist), cAMP AlphaScreen [6] [µM]
1 | Ac-DNal(2’)-DNal(2’)-Trp-DLys-NH2 (peptide) | 200 | 6.7 | 1600 | 5.8 | > 100 | 30 | > 100 | 25 |  |  |  |  |  | 
2 | Ac-Phe(pI)-Nal(2’)-Phe(pI)-Arg-NH2 (peptide) |  |  |  |  |  |  |  | 60 |  |  |  |  |  | 
3 | Ac-DNal(2’)-Arg-DPhe(pI)-DLys-NH2 (peptide) |  | 8.5 |  | 6.9 | > 100 |  | > 100 |  | > 100 | 0.22 |  |  |  | 
4 | Ac-DPhe(pI)-DNal(2’)-Trp-DLys-NH2 (peptide) |  | 6.6 |  | 5.7 | > 100 |  | > 100 | 65 | > 100 |  |  |  |  | 
5 | Ac-DPhe(pI)-Arg-DNal(2’)-DNal(2’)-NH2 (peptide) |  | 6.7 |  | 6.1 |  | 45 |  | 80 |  |  | 20 | 45 |  | 
6 | Ac-DNal(2’)-Arg-Nal(2’)-DNal(2’)-NH2 (peptide) |  | 6.7 |  |  |  | 30 |  | 40 |  |  | 25 | 30 |  | 
7 | Ac-DNal(2’)-Arg-DPhe(pI)-DNal(2’)-NH2 (peptide) |  | 6.5 |  | 6.1 |  | 30 |  |  |  |  | 40 | 40 |  | 
8 | Ac-DNal(2’)-DNal(2’)-DPhe(pI)-DLys-NH2 (peptide) |  | < 5.5 |  | < 5.5 | > 100 |  | > 100 | 20 | > 100 |  |  |  |  | 
9 | Ac-DNal(2’)-Arg-DNal(2’)-DNal(2’)-NH2 (peptide) |  | 6.3 |  | 5.7 |  | 45 |  |  |  |  | 20 | 50 | 85 | 5
10 | Ac-DNal(2’)-DNal(2’)-DNal(2’)-Arg-NH2 (peptide) |  | < 5.5 |  | < 5.5 | 0.13 | 25 |  | 30 |  |  |  | 35 |  | 
11 | Ac-DPhe(pI)-Arg-DNal(2’)-Arg-NH2 (peptide) |  | 8.3 |  | 6.9 | > 100 |  | > 100 |  | > 100 |  |  |  | 65 | 0.4
12 | Ac-DPhe(pI)-DNal(2’)-DPhe(pI)-Arg-NH2 (peptide) |  |  |  |  | 0.13 |  | > 100 | 40 | > 100 |  |  |  |  | 
13 | Ac-[d2Nal]RWR-NH2 |  | 8.3 |  | 6.8 | > 100 | 20 | > 100 | 40 |  |  |  |  |  | 
14 | Ac-DPhe(pI)-DNal(2’)-Nal(2’)-DLys-NH2 (peptide) |  |  |  |  |  |  |  | 40 | > 100 |  | 50 | 20 |  | 
15 | Ac-[dPhe(4-I)]R[2Nal][d2Nal]-NH2 |  | 6.7 |  |  | > 100 |  | > 100 | 55 | > 100 |  |  |  |  | 
16 | Ac-DPhe(pI)-DNal(2’)-Nal(2’)-Arg-NH2 (peptide) |  | 5.8 |  |  | 0.8 |  | > 100 | 20 | > 100 |  |  |  |  | 
17 | Ac-DNal(2’)-DNal(2’)-Nal(2’)-DLys-NH2 (peptide) |  |  |  |  | > 100 |  | > 100 | 45 | > 100 |  |  |  |  | 
18 | Ac-[d2Nal]R[2Nal]R-NH2 |  | 8.8 |  |  | > 100 | 30 | > 100 |  |  | > 100 |  |  |  | 
19 | Ac-[dPhe(4-I)]R[2Nal][dK]-NH2 |  |  |  | 6.8 | > 100 |  | > 100 |  | > 100 | > 100 |  |  |  | 
20 | Ac-DNal(2’)-Arg-DNal(2’)-DLys-NH2 (peptide) |  | 8.2 |  |  | > 100 |  | > 100 |  | > 100 |  |  |  | 30 | 6
21 | Ac-DPhe(pI)-DNal(2’)-DPhe(pI)-DLys-NH2 (peptide) |  |  |  |  | > 100 |  | > 100 |  | > 100 | > 100 |  |  |  | 
22 | Ac-DPhe(pI)-DNal(2’)-DNal(2’)-Arg-NH2 (peptide) |  |  |  |  | 0.23 |  | > 100 |  | > 100 | > 100 |  |  |  | 
23 | Ac-DNal(2’)-DNal(2’)-DPhe(pI)-Arg-NH2 (peptide) |  | < 5.5 |  | < 5.5 |  |  | > 100 | 25 | > 100 |  |  |  |  | 
24 | Ac-DPhe(pI)-DNal(2’)-DNal(2’)-DLys-NH2 (peptide) |  | 6.3 |  |  | > 100 |  | > 100 | 35 | > 100 |  |  |  |  | 
25 | Ac-DPhe(pI)-DNal(2’)-Trp-Arg-NH2 (peptide) |  | 5.6 |  |  | > 100 |  | > 100 |  | > 100 | > 100 |  |  |  | 
26 | Ac-[dPhe(4-I)]RW[d2Nal]-NH2 |  | 7.6 |  |  | > 100 | 35 |  | 45 |  |  |  | 25 |  | 
27 | Ac-DNal(2’)-DNal(2’)-Nal(2’)-Arg-NH2 (peptide) |  |  |  |  |  |  | > 100 | 55 | > 100 |  | 40 |  |  | 
28 | Ac-[d2Nal]RW[d2Nal]-NH2 |  |  |  | 5.7 | > 100 | 30 |  | 40 |  |  |  | 40 |  | 
